Reference: doi:10.1101/2023.08.25.554718, “Structural mechanism of synergistic targeting of the CX3CR1 nucleosome by PU.1 and C/EBPα”

B1: 20 bp C/EBPalpha site DNA (dsDNA)
DNA 1: ATCTTCAGCTGGTTGCTGAG
DNA 2: CTCAGCAACCAGCTGAAGAT
B2: 162 bp CX3CR1 DNA (dsDNA)
DNA 1: TAGGTGCAGGGCCTCTCGGCTGCTGATCTTCAGCTGGTTGCTGAGAGTTGCAGCATTGCTGAGTCTTAGCAATGGATACTTCCCGATTCCCCTCACAAAAATAGGTCAGTCTGTCTGGCTAGTTCTGTACTTGCAGACACAGGGCATGTGGGGTTCCTATTT
DNA 2: AAATAGGAACCCCACATGCCCTGTGTCTGCAAGTACAGAACTAGCCAGACAGACTGACCTATTTTTGTGAGGGGAATCGGGAAGTATCCATTGCTAAGACTCAGCAATGCTGCAACTCTCAGCAACCAGCTGAAGATCAGCAGCCGAGAGGCCCTGCACCTA

How the values were obtained:
MBP-DBD C/EBPalpha = MBP-DBD C/EBPalpha (UniProt P53566 214-359); assay: EMSA; 5 uM DNA; MBP fusion assumed; EMSA: 20 mM HEPES pH 7.3, 150 mM NaCl, 0.5 mM TCEP, 30 min room temperature, 0.5 uM nucleosome or DNA; FRET: 20 mM HEPES pH 7.1, 100 mM NaCl, 0.5 mM TCEP, 200 nM nucleosome; conditions: protein: recombinant; tags: N-terminal MBP; chain copies: 2; blunt
PU.1 ETS (ETSPU.1) = PU.1 ETS (ETSPU.1) (mouse, UniProt P17433 165-272); assay: EMSA; EMSA: 20 mM HEPES pH 7.3, 150 mM NaCl, 0.5 mM TCEP, 30 min room temperature, 0.5 uM nucleosome or DNA; FRET: 20 mM HEPES pH 7.1, 100 mM NaCl, 0.5 mM TCEP, 200 n
PU.1 full-length = PU.1 full-length (mouse, UniProt P17433 1-272); assay: EMSA; EMSA: 20 mM HEPES pH 7.3, 150 mM NaCl, 0.5 mM TCEP, 30 min room temperature, 0.5 uM nucleosome or DNA; FRET: 20 mM HEPES pH 7.1, 100 mM NaCl, 0.5 mM TCEP, 200 nM nucleosome; conditions: protein: recombinant; tags: N-terminal His
PU.1 ETS Q218H = PU.1 ETS Q218H (mouse, UniProt P17433 165-272, Q218H); assay: EMSA; little effect of Q218H; EMSA: 20 mM HEPES pH 7.3, 150 mM NaCl, 0.5 mM TCEP, 30 min room temperature, 0.5 uM nucleosome or DNA; FRET: 20 mM HEPES pH 7.1, 100 mM NaCl, 0.5 mM TCEP, 200 n

Sequence of MBP-DBD C/EBPalpha (P53566 214-359): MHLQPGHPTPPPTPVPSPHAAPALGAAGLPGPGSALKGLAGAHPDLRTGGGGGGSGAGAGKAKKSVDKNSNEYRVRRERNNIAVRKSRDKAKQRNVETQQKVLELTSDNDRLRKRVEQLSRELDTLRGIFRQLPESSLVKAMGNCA

| Binder | binding result (MBP-DBD C/EBPalpha) | binding result (PU.1 ETS (ETSPU.1)) | binding result (PU.1 full-length) | binding result (PU.1 ETS Q218H) |
| --- | --- | --- | --- | --- |
| B1 | binds |  |  |  |
| B2 |  | binds | binds | binds |
